Experimental data from patent publication US20240301076A1 (CEPHALON, published 2024).
Changes are numbered by the printed parent chain. In names and notes the source's numbering stands.

T1: human CXCR2 (human, UniProt P25025 1-360)
T1 sequence: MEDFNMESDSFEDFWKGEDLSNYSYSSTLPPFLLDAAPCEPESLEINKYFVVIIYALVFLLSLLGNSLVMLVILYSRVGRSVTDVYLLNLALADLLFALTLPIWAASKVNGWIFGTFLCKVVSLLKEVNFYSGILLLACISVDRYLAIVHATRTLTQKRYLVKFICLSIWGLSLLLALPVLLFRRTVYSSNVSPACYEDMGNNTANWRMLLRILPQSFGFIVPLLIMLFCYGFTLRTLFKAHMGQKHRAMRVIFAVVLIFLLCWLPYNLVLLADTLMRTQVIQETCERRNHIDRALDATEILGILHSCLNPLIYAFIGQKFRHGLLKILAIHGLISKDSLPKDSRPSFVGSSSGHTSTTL

B1: BKO-4A8 variant VH M34Q (antibody, human IgG4 S228P, lambda, V domains shown)
VH: EVQLLESGGGLVQPGGSLRLSCAASGFTFSSSTQSWVRQAPGKGLEWVSAISGRGRNTYYADSVKGRFTISRDNSRNTLYLQMNSLRAEDTAVYYCAIQMGYWGQGILVTVSS
VL: QSALTQPPSASGSPGQSVTISCIGTSSDVGGYNYVSWYQQHPDKAPKLMIYEVNKRPSGVPDRFSGSKSGNTASLTVSGLQAEDEADYYCSSYAGNNNFGVFGGGTKLTVLG
notes: IgG4 S228P, lambda; parental light chain; also called 4A8 VH M34Q
B2: BKO-4A8 variant VH M34H (antibody, human IgG4 S228P, lambda, V domains shown)
VH: B1 VH with Q34H
VL: B1 VL
notes: IgG4 S228P, lambda; parental light chain; also called 4A8 VH M34H
B3: BKO-4A8 variant VH I94K (antibody, human IgG4 S228P, lambda, V domains shown)
VH: B1 VH with Q34M, I98K
VL: B1 VL
notes: IgG4 S228P, lambda; parental light chain; also called 4A8 VH I94K
B4: BKO-4A8 variant VL V97K (antibody, human IgG4 S228P, lambda, V domains shown)
VH: B1 VH with Q34M
VL: B1 VL with V101K
notes: IgG4 S228P, lambda; parental heavy chain; also called 4A8 VL V97K
B5: BKO-4A8 variant VL N94L (antibody, human IgG4 S228P, lambda, V domains shown)
VH: B1 VH with Q34M
VL: B1 VL with N96L
notes: IgG4 S228P, lambda; parental heavy chain; also called 4A8 VL N94L
B6: BKO-4A8 variant VL N94W (antibody, human IgG4 S228P, lambda, V domains shown)
VH: B1 VH with Q34M
VL: B1 VL with N96W
notes: IgG4 S228P, lambda; parental heavy chain; also called 4A8 VL N94W
B7: BKO-4A8 variant VL N94A (antibody, human IgG4 S228P, lambda, V domains shown)
VH: B1 VH with Q34M
VL: B1 VL with N96A
notes: IgG4 S228P, lambda; parental heavy chain; also called 4A8 VL N94A
B8: BKO-4A8 variant VL N95aD (antibody, human IgG4 S228P, lambda, V domains shown)
VH: B1 VH with Q34M
VL: B1 VL with N98D
notes: IgG4 S228P, lambda; parental heavy chain; also called 4A8 VL N95aD
B9: BKO-4A8 variant VL V97A (antibody, human IgG4 S228P, lambda, V domains shown)
VH: B1 VH with Q34M
VL: B1 VL with V101A
notes: IgG4 S228P, lambda; parental heavy chain; also called 4A8 VL V97A
B10: BKO-4A8 variant VL N52D (antibody, human IgG4 S228P, lambda, V domains shown)
VH: B1 VH with Q34M
VL: B1 VL with N54D
notes: IgG4 S228P, lambda; parental heavy chain; also called 4A8 VL N52D
B11: BKO-4A8 variant VL N95aH (antibody, human IgG4 S228P, lambda, V domains shown)
VH: B1 VH with Q34M
VL: B1 VL with N98H
notes: IgG4 S228P, lambda; parental heavy chain; also called 4A8 VL N95aH
B12: BKO-4A8 variant VL K53H (antibody, human IgG4 S228P, lambda, V domains shown)
VH: B1 VH with Q34M
VL: B1 VL with K55H
notes: IgG4 S228P, lambda; parental heavy chain; also called 4A8 VL K53H
B13: BKO-4A8 variant VL N95aY (antibody, human IgG4 S228P, lambda, V domains shown)
VH: B1 VH with Q34M
VL: B1 VL with N98Y
notes: IgG4 S228P, lambda; parental heavy chain; also called 4A8 VL N95aY
B14: BKO-4A8 variant VL Y91A (antibody, human IgG4 S228P, lambda, V domains shown)
VH: B1 VH with Q34M
VL: B1 VL with Y93A
notes: IgG4 S228P, lambda; parental heavy chain; also called 4A8 VL Y91A
B15: BKO-4A8 variant VL R54Q (antibody, human IgG4 S228P, lambda, V domains shown)
VH: B1 VH with Q34M
VL: B1 VL with R56Q
notes: IgG4 S228P, lambda; parental heavy chain; also called 4A8 VL R54Q
B16: BKO-4A8 variant VL N95aL (antibody, human IgG4 S228P, lambda, V domains shown)
VH: B1 VH with Q34M
VL: B1 VL with N98L
notes: IgG4 S228P, lambda; parental heavy chain; also called 4A8 VL N95aL
B17: BKO-4A8 variant VL N95aK (antibody, human IgG4 S228P, lambda, V domains shown)
VH: B1 VH with Q34M
VL: B1 VL with N98K
notes: IgG4 S228P, lambda; parental heavy chain; also called 4A8 VL N95aK
B18: BKO-4A8 combinatorial variant 1b (antibody, human IgG4 S228P, lambda, V domains shown)
VH: B1 VH with N57S
VL: B1 VL with N54S, N96S
notes: IgG4 S228P, lambda
B19: BKO-4A8 combinatorial variant 6c (antibody, human IgG4 S228P, lambda, V domains shown)
VH: B1 VH with A40P, N57S, R76K, I98K, M100K
VL: B1 VL with D43G, N54S, N96S
notes: IgG4 S228P, lambda
B20: BKO-4A8 combinatorial variant 7b (antibody, human IgG4 S228P, lambda, V domains shown)
VH: B1 VH with A40P, N57S, I98K, M100K
VL: B1 VL with N54S, N96S
notes: IgG4 S228P, lambda
B21: BKO-4A8 combinatorial variant 9c (antibody, human IgG4 S228P, lambda, V domains shown)
VH: B1 VH with N57S, R76K, M100K
VL: B1 VL with D43G, N54S, N96S
notes: IgG4 S228P, lambda
B22: BKO-4A8 combinatorial variant 9b (antibody, human IgG4 S228P, lambda, V domains shown)
VH: B1 VH with N57S, R76K, M100K
VL: B1 VL with N54S, N96S
notes: IgG4 S228P, lambda
B23: BKO-4A8 combinatorial variant 2c (antibody, human IgG4 S228P, lambda, V domains shown)
VH: B1 VH with A40P, N57S
VL: B1 VL with D43G, N54S, N96S
notes: IgG4 S228P, lambda
B24: BKO-4A8 combinatorial variant 10c (antibody, human IgG4 S228P, lambda, V domains shown)
VH: B1 VH with Q34M, I98K, M100K
VL: B1 VL with D43G, N54S, N96S
notes: IgG4 S228P, lambda
B25: BKO-4A8 combinatorial variant 7c (antibody, human IgG4 S228P, lambda, V domains shown)
VH: B1 VH with A40P, N57S, I98K, M100K
VL: B1 VL with D43G, N54S, N96S
notes: IgG4 S228P, lambda
B26: BKO-4A8 combinatorial variant 5b (antibody, human IgG4 S228P, lambda, V domains shown)
VH: B1 VH with A40P, N57S, R76K, M100K
VL: B1 VL with N54S, N96S
notes: IgG4 S228P, lambda
B27: BKO-4A8 combinatorial variant 5c (antibody, human IgG4 S228P, lambda, V domains shown)
VH: B1 VH with A40P, N57S, R76K, M100K
VL: B1 VL with D43G, N54S, N96S
notes: IgG4 S228P, lambda
B28: BKO-4A8 combinatorial variant 6b (antibody, human IgG4 S228P, lambda, V domains shown)
VH: B1 VH with A40P, N57S, R76K, I98K, M100K
VL: B1 VL with N54S, N96S
notes: IgG4 S228P, lambda
B29: BKO-4A8 combinatorial variant 4b (antibody, human IgG4 S228P, lambda, V domains shown)
VH: B1 VH with A40P, N57S, M100K
VL: B1 VL with N54S, N96S
notes: IgG4 S228P, lambda
B30: BKO-4A8 combinatorial variant 2b (antibody, human IgG4 S228P, lambda, V domains shown)
VH: B1 VH with A40P, N57S
VL: B1 VL with N54S, N96S
notes: IgG4 S228P, lambda
B31: BKO-4A8 combinatorial variant 1c (antibody, human IgG4 S228P, lambda, V domains shown)
VH: B1 VH with N57S
VL: B1 VL with D43G, N54S, N96S
notes: IgG4 S228P, lambda
B32: BKO-4A8 combinatorial variant 4c (antibody, human IgG4 S228P, lambda, V domains shown)
VH: B1 VH with A40P, N57S, M100K
VL: B1 VL with D43G, N54S, N96S
notes: IgG4 S228P, lambda
B33: BKO-4A8 combinatorial variant 3b (antibody, human IgG4 S228P, lambda, V domains shown)
VH: B1 VH with A40P, N57S, R76K
VL: B1 VL with N54S, N96S
notes: IgG4 S228P, lambda
B34: BKO-4A8 combinatorial variant 3c (antibody, human IgG4 S228P, lambda, V domains shown)
VH: B1 VH with A40P, N57S, R76K
VL: B1 VL with D43G, N54S, N96S
notes: IgG4 S228P, lambda
B35: BKO-4A8 combinatorial variant 10b (antibody, human IgG4 S228P, lambda, V domains shown)
VH: B1 VH with Q34M, I98K, M100K
VL: B1 VL with N54S, N96S
notes: IgG4 S228P, lambda

molecular target: T1, human CXCR2; assay: cell-based or functional assay

IC50, CXCL1, Tango assay [nM] | IC50, CXCL8, Tango assay [nM] | Binder
0.242 | 0.0776 | B1
0.186 | 0.107 | B2
0.078 | 0.071 | B3

molecular target: T1, human CXCR2; assay: flow cytometry, CXCR2-transfected Expi293F cells
Protocol: (§1) Harvested cells were resuspended in FACS buffer (1×PBS+0.5% (w/v) bovine serum albumin (BSA)+2 mM EDTA pH 7.2). Approximately 2×10⁵ cells were added per well in a 96-well round-bottomed plate. Cells were pelleted by centrifugation at 400 g for 5 mins at 4° C. and supernatants discarded. 25 μL of each test antibody or control antibody was added to the cells and incubated for 30 minutes at 4° C. Cells were washed twice in 100 μL FACS buffer followed by centrifugation at 400 g for 5 mins at 4° C.
(§2) For detection, 50 μL of secondary antibody (Table 2) was added to relevant samples. Commercially available antibodies that bound to transfected CXCR family members were used as positive controls to ensure that the cells were expressing the receptors. Cells were washed twice in 200 μL of FACS buffer followed by centrifugation at 400 g for 5 mins at 4° C. Before sample acquisition, cells were resuspended in 100 μL of FACS buffer. Samples were acquired using the high throughput sampler on a FACSCanto™ II cytometer (Beckton-Dickinson).
Each variant heavy chain was co-expressed with the parental light chain and vice versa.

Fold change in binding relative to BKO-4A8 [fold] | Binder
1 | B4
0.88 | B5
0.63 | B6
1 | B7
2.3 | B8
1.7 | B9
1.7 | B10
1 | B1
1.3 | B11
1.4 | B12
1.7 | B13
1.7 | B14
1.6 | B15
0.8 | B2
1.7 | B16
0.7 | B3
1 | B17

molecular target: T1, human CXCR2; assay: flow cytometry, CXCR2-transfected Expi293F cells; remark: another data set of the same source
Protocol: as §1, §2
Each heavy chain was co-expressed with each light chain to produce a sequence optimized antibody variant. Antibodies were purified and tested for CXCR2 binding activity as described in General Methods.

EC50 [nM] | Fold Improvement over 4A8 WT [fold] | Binder
0.3 | 1.33 | B18
0.9 | 0.44 | B19
0.8 | 0.63 | B20
6.4 | 0.14 | B21
0.3 | 3 | B22
0.3 | 1.67 | B23
0.5 | 1 | B24
1 | 0.5 | B25
0.4 | 1.25 | B26
0.4 | 1.25 | B27
0.4 | 1 | B28
0.4 | 1.25 | B29
0.4 | 1.25 | B30
0.3 | 1.33 | B31
0.4 | 1.25 | B32
0.1 | 4 | B33
0.2 | 2 | B34
0.3 | 1.67 | B35
